Data reported in publication doi:10.1101/2025.10.29.685385.

What was measured:
[1] = target: PHOX2B Q46K homeodomain (human); assay: native gel or EMSA; quantitative EMSA, purified HD protein with 34 nM fluorescent Q50 P3 probe (TAAT-TAG-ATTA); 20 min at room temperature, 10 mM Tris pH 7.5, 50 mM NaCl, 1 mM MgCl2, 4% glycerol, 0.5 mM DTT, 0.5 mM EDTA, poly(dI-dC), BSA; Tau = 4[P2D][D]/[PD]^2, the factor by which the first HD on the DNA helps the second to bind (monomer on DNA to dimer on DNA)
[2] = target: ALX4 homeodomain (amino acids 209-274) (human) (UniProt Q9H161); assay: native gel or EMSA; quantitative EMSA, purified HD protein with 34 nM fluorescent P4 probe (a single G added to the spacer of the P3 probe); same buffer; Tau = 4[P2D][D]/[PD]^2 (monomer on DNA to dimer on DNA)
[3] = target: PHOX2B Q46R homeodomain (human); assay: native gel or EMSA; quantitative EMSA, purified HD protein with 34 nM fluorescent Q50 P3 probe (TAAT-TAG-ATTA); 20 min at room temperature, 10 mM Tris pH 7.5, 50 mM NaCl, 1 mM MgCl2, 4% glycerol, 0.5 mM DTT, 0.5 mM EDTA, poly(dI-dC), BSA; Tau = 4[P2D][D]/[PD]^2, the factor by which the first HD on the DNA helps the second to bind (monomer on DNA to dimer on DNA)
[4] = target: OTP homeodomain (amino acids 99-164) (human) (UniProt Q5XKR4); assay: native gel or EMSA; quantitative EMSA, purified HD protein with 34 nM fluorescent P4 probe (a single G added to the spacer of the P3 probe); same buffer; Tau = 4[P2D][D]/[PD]^2 (monomer on DNA to dimer on DNA)
[5] = target: PITX3 homeodomain (human); assay: native gel or EMSA; quantitative EMSA, purified HD protein with 34 nM fluorescent K50 P3 probe (TAAT-CCG-ATTA); 20 min at room temperature, 10 mM Tris pH 7.5, 50 mM NaCl, 1 mM MgCl2, 4% glycerol, 0.5 mM DTT, 0.5 mM EDTA, poly(dI-dC), BSA; Tau = 4[P2D][D]/[PD]^2 (monomer on DNA to dimer on DNA)

**Q.** How did the Tau (cooperativity factor) with P3 DNA [1] turn out when “PHOX2B Q46K homeodomain (domain or fragment)” was run?
**A.** 1.4

**Q.** How did the Tau (cooperativity factor) with P4 DNA [2] turn out when “ALX4 homeodomain (amino acids 209-274) (from UniProt Q9H161 209-274) (domain or fragment)” was run?
**A.** 0.792

**Q.** For “PHOX2B Q46R homeodomain (domain or fragment)”, which Tau (cooperativity factor) with P3 DNA [3] is on record?
**A.** 1.27

**Q.** Which Tau (cooperativity factor) with P4 DNA [4] does the source give for “OTP homeodomain (amino acids 99-164) (from UniProt Q5XKR4 99-164) (domain or fragment)” here?
**A.** 0.29

**Q.** For PITX3 homeodomain (domain or fragment), which Tau (cooperativity factor) with P3 DNA [5] is on record?
**A.** 0.157
